Laboratory results published in US20070082369A1.

Experiments:
[1] = target: Pichia-expressed recombinant Der f 1 protein PDerf1303b (Dermatophagoides farinae) (UniProt P16311); experiment: sandwich ELISA, capture MAb 6A8, detection biotinylated MAb 4C1; 1.5 ng protein per well
[2] = target: Heska native Derf1 (Dermatophagoides farinae) (UniProt P16311); experiment: as above
[3] = target: E. coli-expressed recombinant Der f 1 protein PDerf1303c (Dermatophagoides farinae) (UniProt P16311); experiment: as above
[4] = target: Pichia-expressed recombinant Der f 1 protein PDerf1303b (Dermatophagoides farinae) (UniProt P16311); experiment: sandwich ELISA, capture MAb 6A8, detection biotinylated MAb 4C1; 3.1 ng protein per well
[5] = target: Heska native Derf1 (Dermatophagoides farinae) (UniProt P16311); experiment: as above
[6] = target: E. coli-expressed recombinant Der f 1 protein PDerf1303c (Dermatophagoides farinae) (UniProt P16311); experiment: as above
[7] = target: Pichia-expressed recombinant Der f 1 protein PDerf1303b (Dermatophagoides farinae) (UniProt P16311); experiment: sandwich ELISA, capture MAb 6A8, detection biotinylated MAb 4C1; 50 ng protein per well
[8] = target: Heska native Derf1 (Dermatophagoides farinae) (UniProt P16311); experiment: as above
[9] = target: E. coli-expressed recombinant Der f 1 protein PDerf1303c (Dermatophagoides farinae) (UniProt P16311); experiment: as above
[10] = target: Pichia-expressed recombinant Der f 1 protein PDerf1303b (Dermatophagoides farinae) (UniProt P16311); experiment: sandwich ELISA, capture MAb 6A8, detection biotinylated MAb 4C1; 2.5 ng protein per well
[11] = target: Heska native Derf1 (Dermatophagoides farinae) (UniProt P16311); experiment: as above
[12] = target: E. coli-expressed recombinant Der f 1 protein PDerf1303c (Dermatophagoides farinae) (UniProt P16311); experiment: as above
[13] = target: Pichia-expressed recombinant Der f 1 protein PDerf1303b (Dermatophagoides farinae) (UniProt P16311); experiment: sandwich ELISA, capture MAb 6A8, detection biotinylated MAb 4C1; 25 ng protein per well
[14] = target: Heska native Derf1 (Dermatophagoides farinae) (UniProt P16311); experiment: as above
[15] = target: E. coli-expressed recombinant Der f 1 protein PDerf1303c (Dermatophagoides farinae) (UniProt P16311); experiment: as above
[16] = target: Pichia-expressed recombinant Der f 1 protein PDerf1303b (Dermatophagoides farinae) (UniProt P16311); experiment: sandwich ELISA, capture MAb 6A8, detection biotinylated MAb 4C1; 6.25 ng protein per well
[17] = target: Heska native Derf1 (Dermatophagoides farinae) (UniProt P16311); experiment: as above
[18] = target: E. coli-expressed recombinant Der f 1 protein PDerf1303c (Dermatophagoides farinae) (UniProt P16311); experiment: as above
[19] = target: Pichia-expressed recombinant Der f 1 protein PDerf1303b (Dermatophagoides farinae) (UniProt P16311); experiment: sandwich ELISA, capture MAb 6A8, detection biotinylated MAb 4C1; 0.75 ng protein per well
[20] = target: Heska native Derf1 (Dermatophagoides farinae) (UniProt P16311); experiment: as above
[21] = target: E. coli-expressed recombinant Der f 1 protein PDerf1303c (Dermatophagoides farinae) (UniProt P16311); experiment: as above

Substance: anti-Der f 1 protein monoclonal antibody 6A8
- OD [1]: 916 OD x1000
- OD [2]: 2040 OD x1000
- OD [3]: 268 OD x1000
- OD [4]: 1540 OD x1000
- OD [5]: 2220 OD x1000
- OD [6]: 503 OD x1000
- OD [7]: 2150 OD x1000
- OD [8]: 2180 OD x1000
- OD [9]: 1980 OD x1000
- OD [10]: 2090 OD x1000
- OD [11]: 2290 OD x1000
- OD [12]: 1370 OD x1000
- OD [13]: 2160 OD x1000
- OD [14]: 2140 OD x1000
- OD [15]: 1770 OD x1000
- OD [16]: 1960 OD x1000
- OD [17]: 2200 OD x1000
- OD [18]: 890 OD x1000
- OD [19]: 405 OD x1000
- OD [20]: 1740 OD x1000
- OD [21]: 136 OD x1000
